Results from publication PMC12276362 (Nature Communications, 2025).

Target: rhAMPK protein (AMPKα2, Abiocenter Biotechnology) (human (printed only as the prefix rh), UniProt P54646 1-552)
Experiment: BLI

rhAMPK protein (AMPKα2, Abiocenter Biotechnology), sequence (P54646 whole entry): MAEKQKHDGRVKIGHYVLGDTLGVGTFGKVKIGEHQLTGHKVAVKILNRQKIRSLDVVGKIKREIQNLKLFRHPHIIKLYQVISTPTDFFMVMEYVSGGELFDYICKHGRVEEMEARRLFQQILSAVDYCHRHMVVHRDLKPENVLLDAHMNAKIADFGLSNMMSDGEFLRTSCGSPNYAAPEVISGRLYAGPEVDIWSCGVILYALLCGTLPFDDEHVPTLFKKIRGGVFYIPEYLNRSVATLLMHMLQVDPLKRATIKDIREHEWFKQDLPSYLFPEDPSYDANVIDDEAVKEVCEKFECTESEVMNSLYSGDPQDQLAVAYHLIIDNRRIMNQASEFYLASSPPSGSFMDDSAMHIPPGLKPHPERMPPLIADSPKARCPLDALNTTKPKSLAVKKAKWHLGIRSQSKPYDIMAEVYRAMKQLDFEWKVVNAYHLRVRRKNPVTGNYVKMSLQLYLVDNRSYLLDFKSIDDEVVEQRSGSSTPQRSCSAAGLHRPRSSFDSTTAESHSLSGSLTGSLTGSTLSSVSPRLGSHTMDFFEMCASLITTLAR

B1: rhOTUD1 protein (enzyme, human (printed only as the prefix rh), UniProt Q5VV17 1-481, looked up)
chain: MQLYSSVCTHYPAGAPGPTAAAPAPPAAATPFKVSLQPPGAAGAAPEPETGECQPAAAAEHREAAAVPAAKMPAFSSCFEVVSGAAAPASAAAGPPGASCKPPLPPHYTSTAQITVRALGADRLLLHGPDPVPGAAGSAAAPRGRCLLLAPAPAAPVPPRRGSSAWLLEELLRPDCPEPAGLDATREGPDRNFRLSEHRQALAAAKHRGPAATPGSPDPGPGPWGEEHLAERGPRGWERGGDRCDAPGGDAARRPDPEAEAPPAGSIEAAPSSAAEPVIVSRSDPRDEKLALYLAEVEKQDKYLRQRNKYRFHIIPDGNCLYRAVSKTVYGDQSLHRELREQTVHYIADHLDHFSPLIEGDVGEFIIAAAQDGAWAGYPELLAMGQMLNVNIHLTTGGRLESPTVSTMIHYLGPEDSLRPSIWLSWLSNGHYDAVFDHSYPNPEYDNWCKQTQVQRKRDEELAKSMAISLSKMYIEQNACS
modifications: biotin (EZ-Link Sulfo-NHS-LC-Biotinylation Kit)
Kd: 55.6 nM
